Source: article PMC8754649, “Structural basis of dimerization and nucleic acid binding of human DBHS proteins NONO and PSPC1” (Nucleic Acids Research, 2021)

Key:
[1] = target: the molecule itself; test: crystal structure; NONO aa53–312 homodimer; six dimers (12 monomers) in the asymmetric unit; 2.60 Å; crystallization and phasing described in ref. 38
[2] = target: the molecule itself; test: crystal structure; PSPC1 aa61–320 homodimer; one dimer in the asymmetric unit; 3.17 Å; hanging drop, 100 mM malic acid pH 7.0, 28% PEG 3350, 100 mM Tris pH 7.0

Protein	binding result [1]	binding result [2]
NONO-DBHS (non-POU domain-containing octamer-binding protein, aa53–312) (domain or fragment, human, UniProt Q15233 53-312, looked up, Cloned into the first expression cassette of pET-Duet1; also called NONO homodimer; P54nrb; not shown: His6, N-terminal, cleaved) EGLTIDLKNFRKPGEKTFTQRSRLFVGNLPPDITEEEMRKLFEKYGKAGEVFIHKDKGFGFIRLETRTLAEIAKVELDNMPLRGKQLRVRFACHSASLTVRNLPQYVSNELLEEAFSVFGQVERAVVIVDDRGRPSGKGIVEFSGKPAARKALDRCSEGSFLLTTFPRPVTVEPMDQLDDEEGLPEKLVIKNQQFHKEREQPPRFAQPGSFEYEYAMRWKALIEMEKQQQDQVDRNIKEAREKLEMEMEAARHEHQVMLM	binds	
PSPC1-DBHS (paraspeckle protein component 1, aa61–320) (domain or fragment, human, UniProt Q8WXF1 61-320, looked up, human PSPC1, conserved DBHS region, aa61–320 relative to UniProt entry PSPC1_HUMAN; also called PSPC1 homodimer; PSPC1 (aa61–320); source: E. coli Rosetta2 (DE3), purified (Ni Hi-Trap, TEV digestion, reverse Hi-Trap, Superdex 200)) MGFTIDIKSFLKPGEKTYTQRCRLFVGNLPTDITEEDFKRLFERYGEPSEVFINRDRGFGFIRLESRTLAEIAKAELDGTILKSRPLRIRFATHGAALTVKNLSPVVSNELLEQAFSQFGPVEKAVVVVDDRGRATGKGFVEFAAKPPARKALERCGDGAFLLTTTPRPVIVEPMEQFDDEDGLPEKLMQKTQQYHKEREQPPRFAQPGTFEFEYASRWKALDEMEKQQREQVDRNIREAKEKLEAEMEAARHEHQLMLM		binds
